# Data published in patent US20210145978A1, “ANTI-CD71 ACTIVATABLE ANTIBODY DRUG CONJUGATES AND METHODS OF USE THEREOF” (AbbVie Inc., priority 2017, published 2021).
# How the values were obtained:
# [1] = Tolerability and stability of AADCs and ADC in cynomolgus monkeys (Example 10); type: in vivo, cynomolgus monkey
# Method: In this study, cynomolgus monkeys were treated intravenously with the indicated AADC or ADC with the indicated dosage at days 1 and […]. Only one dose was tolerated for anti-CD71 TF02.13-3011-vc-MMAE AADC and only one dose was administered for anti-CD71-vc-MMAE E2 (i.e. having a DAR of ˜2) ADC. The stability of the activatable antibodies (i.e. total activatable antibody vs intact activatable antibody) in the samples obtained from each animals was performed as described in Example 9 using reverse phase LC/MS/MS)
# The body weight loss was determined on the lowest measure weight following the 1st administered dose. The baseline neutrophil count was at least 1000 per μL.
# [2] = Non-GLP pilot toxicity studies in cynomolgus monkeys; type: in vivo, cynomolgus monkey
# Method: Terminal necropsies were performed on the test animals on day 29 (7 days after the last dose). Assessments during the study included clinical signs, body weight, food consumption, clinical pathology, anatomic pathology, TK, and immunogenicity.
# CD71 on NCI H292 cells = target: T1, CD71 on NCI H292 cells (Homo sapiens, UniProt P02786); test: FACS binding to NCI H292 cells, masking efficiency (Example 3); conditions: relative to parental Ab 21.12
# T1 construct: endogenous in cells; host or cells: NCI-H292
# T1 sequence (P02786 whole entry): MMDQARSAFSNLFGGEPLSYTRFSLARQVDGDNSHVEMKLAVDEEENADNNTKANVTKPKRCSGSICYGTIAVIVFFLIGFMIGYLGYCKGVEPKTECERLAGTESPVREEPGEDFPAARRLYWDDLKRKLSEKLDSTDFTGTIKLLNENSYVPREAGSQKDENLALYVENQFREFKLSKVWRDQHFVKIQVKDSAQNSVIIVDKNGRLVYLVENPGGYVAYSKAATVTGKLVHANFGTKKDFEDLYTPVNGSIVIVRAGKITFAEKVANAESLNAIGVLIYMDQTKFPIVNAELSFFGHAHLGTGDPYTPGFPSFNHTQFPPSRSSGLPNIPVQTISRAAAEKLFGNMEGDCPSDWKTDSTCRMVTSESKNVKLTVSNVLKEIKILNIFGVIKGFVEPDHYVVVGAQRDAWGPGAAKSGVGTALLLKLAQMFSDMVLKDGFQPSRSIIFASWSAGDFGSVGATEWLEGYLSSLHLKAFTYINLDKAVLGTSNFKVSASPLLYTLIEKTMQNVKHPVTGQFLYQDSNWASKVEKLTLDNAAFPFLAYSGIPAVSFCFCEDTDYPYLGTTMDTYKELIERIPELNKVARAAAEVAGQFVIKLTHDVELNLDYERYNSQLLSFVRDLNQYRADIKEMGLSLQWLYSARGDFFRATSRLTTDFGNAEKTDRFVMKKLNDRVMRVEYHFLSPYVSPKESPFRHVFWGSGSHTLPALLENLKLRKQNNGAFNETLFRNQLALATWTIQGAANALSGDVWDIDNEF
# Method: Binding of anti-CD71 activatable antibodies of the present disclosure to the NCI H292 (also referred to herein as H292) cell line was evaluated using FACS. Briefly, cells were labeled with huCD71 antibody or activatable antibody at a range of concentrations and subsequently detected with an Alexa Fluor 647 labeled goat anti-human IgG secondary antibody to determine a binding curve.
# human CD71 on H292 cells = target: T2, human CD71 on H292 cells (Homo sapiens, UniProt P02786); test: FACS binding to cells, Table 3B; conditions: binding curves of FIG. 3C
# T2 construct: endogenous in cells; host or cells: NCI-H292
# T2 sequence (P02786 whole entry): as above
# Excerpt: (§1) FIGS. 3C and 3D show in a FACS assay the exemplary results that anti-CD71 activatable antibodies of the present disclosure and anti-CD71 conjugated activatable antibodies of the present disclosure bind cells expressing human CD71 (FIG. 3C) and cynomolgus CD71 (FIG. 3D) with a higher dissociation constant and lower affinity than that of the corresponding protease-activated anti-CD71 activatable antibody or protease-activated anti-CD71 conjugated activatable antibody of the present disclosure.
# (§2) In the exemplary study shown in FIGS. 3C and 3D, the binding of the antibodies of the present disclosure to the indicated cell lines were performed using a standard FACS labelling method. […] In addition, the binding affinity of the anti-CD71 activatable antibody (anti-CD71 TF02.13-2011 (Act)) and the E2 (i.e. having a DAR of ˜2) anti-CD71 conjugated activatable antibody (anti-CD71 TF02.13-2011-vcMMAE E2 (Act)) were also assayed following protease-activation that cleaved the cleavable moiety therein. Each test article was applied at the indicated concentrations and subsequently detected with an Alexa Fluor 647 labeled goat anti-human IgG secondary antibody.
# [3] = system: cynomolgus CD71 on CHO cells; test: FACS binding to cells, Table 3B; conditions: binding curves of FIG. 3D; read-out: CHO w/ Cynomolgus CD71 FACS EC50
# Excerpt: as §1, §2
# [4] = 0.6 mg/kg, q3wx2, non-GLP study
molecule,measurement,setting,value
"Ab21.12-vc-MMAE E2: unmasked parental anti-CD71 antibody drug conjugate (ADC), Ab21.12 with vc-MMAE (conjugate, vc-MMAE conjugate, DAR ~2, unmasked parental anti-CD71 antibody drug conjugate (ADC), Ab21.12 with vc-MMAE) VH: QVQLVQSGAEVKKPGASVKMSCKASGYTFTSYWMHWVRQAPGQGLEWIGAIYPGNSETGYAQKFQGRATLTADTSTSTAYMELSSLRSEDTAVYYCTRENWDPGFAFWGQGTLITVSS VL: DIQMTQSPSSLSASVGDRVTITCSASSSVYYMYWFQQKPGKAPKLWIYSTSNLASGVPSRFSGSGSGTDYTLTISSMQPEDFATYYCQQRRNYPYTFGQGTKLEIK",Avg. Neutrophil Count ± SD (per μL),"[1]; 2 mg/kg IV, one dose, baseline at least 1000 per μL",70 per μL
same,Body weight loss,"[1]; 2 mg/kg IV, one dose, lowest weight after 1st dose",~8%
same,"lethality, time after the first dose","[1]; non-masked E2 ADC, cynomolgus monkeys (2 mg/kg in Table 5)",≤ 8 days
same,Average neutrophil count ± SD,[2]; [4],280 ± 42
same,Body weight loss,[2]; [4],4%
same,Tolerability,[2]; [4],Tolerated
same,Average neutrophil count ± SD,"[2]; 2 mg/kg, q3wx2, non-GLP study",70
same,Body weight loss,"[2]; 2 mg/kg, q3wx2, non-GLP study",6%
same,test article-related findings,[2]; 0.6 to 18 mg/kg IV bolus,consisted primarily of hematologic toxicity
same,"toxicity (hunched posture, decreased activity, body temperature elevation)",[2]; 6 and 2 mg/kg,Severe toxicity
same,time to lack of tolerability after a single dose,[2]; single dose at 2 mpk,≤ 8 days
same,mortality,[2]; single dose at >2 mg/kg,mortality attributed to secondary infection was observed
"Ab21.12: humanized anti-CD71 antibody, VH of SEQ ID NO: 5 and VL of SEQ ID NO: 7 (antibody, V domains shown) VH: QVQLVQSGAEVKKPGASVKMSCKASGYTFTSYWMHWVRQAPGQGLEWIGAIYPGNSETGYAQKFQGRATLTADTSTSTAYMELSSLRSEDTAVYYCTRENWDPGFAFWGQGTLITVSS VL: DIQMTQSPSSLSASVGDRVTITCSASSSVYYMYWFQQKPGKAPKLWIYSTSNLASGVPSRFSGSGSGTDYTLTISSMQPEDFATYYCQQRRNYPYTFGQGTKLEIK",Masking Efficiency,CD71 on NCI H292 cells,1
same,EC50,human CD71 on H292 cells,1.02 nM
"Ab 21.12-vc-M MAE: anti-CD71 Ab 21.12 conjugated to vc-MMAE; DAR not stated in Table 3B (conjugate, vc-MMAE conjugate) VH: QVQLVQSGAEVKKPGASVKMSCKASGYTFTSYWMHWVRQAPGQGLEWIGAIYPGNSETGYAQKFQGRATLTADTSTSTAYMELSSLRSEDTAVYYCTRENWDPGFAFWGQGTLITVSS VL: DIQMTQSPSSLSASVGDRVTITCSASSSVYYMYWFQQKPGKAPKLWIYSTSNLASGVPSRFSGSGSGTDYTLTISSMQPEDFATYYCQQRRNYPYTFGQGTKLEIK",EC50,[3],0.291 nM
